Measurements reported in patent US20250296984A1, “THERAPEUTIC AND DIAGNOSTIC AGENTS AND USES THEREOF” (priority 2022, published 2025).

Legend:
[1] = system: human astrocytoma and glioblastoma tissues; assay: IHC in human brain cancer cohort (astrocytoma grade 1-3, glioblastoma grade 4, NAT); set-up: key to IHC staining grade: stained negative (0); positive cytoplasmic staining (1+); moderately positive cytoplasmic staining (2+)
From the text: FIG. 17. Human glioblastoma tissues were studied with the US28-13-5G6-1D3 rAb and MAB810R antibodies by using IHC and with ISH analysis for HCMV DNA. […] The staining was present in several cells in each positive sample which was different from the breast cancer samples. However, the staining of the glia cells was weaker than for the US28-13-5G6-1D3 rAb. C. The brain tissue NAT is negative for 13-5G6-1D3 staining. […] The arrows indicate these signals. E. The staining of the same Gliobastoma grade IV sample is negative for the IgG antibody. F. The ISH analysis is negative for the same brain tissue NAT sample. The positive glia cells are indicated with arrows in the non-colour version of these figures. A colour version of FIG. 17 is provided on the page after the non-colour version.
FIG. 18. US28-13-5G6-1D3 staining of the human brain cancer cohort containing human astrocytoma grade 1-3 and glioblastoma grade 4 and NAT tissues. All the astrocytoma grade 1 (n=4) stained negative (0). Of the grade 2-3 astrocytomas, 6 stained negative (0), 37 had positive cytoplasmic staining (1+), and 2 had moderately positive cytoplasmic staining (2+). […] The ISH analysis confirmed presence of nuclear HCMV DNA in tumor cells of all tumor samples. Only 3 of 10 NAT samples were HCMV DNA positive.

[2] = system: human heart muscle tissue; assay: IHC on human cardiac tissue samples (TMA with malignant pheochromocytoma positive control)
Description: FIG. 19. A. Flowcytometry analysis with the 28-13-5G6-1D3-PE antibody were conducted on various human primary cells to exclude general off-target binding to the surface of these cell types. The following cell lines were studied: human primary adrenal cortical cells, human primary kidney epithelial cells, human primary cardiac microvascular endothelial cells, human primary liver epithelial cells and human primary vein smooth muscle cells. […] B. Original human primary cardiac cells were not available, and human cardiac tissue samples were therefore studied for staining of 13-5G6-1D3 by immunohistochemistry. […] If there were HCMV infections present in the human heart, they were always of productive infection type. […] The positive 13-5G6-1D3 and HCMV ISH results are marked with arrows in the figure. A colour version of FIG. 19 is also provided.

[3] = system: control CHO cells (US28 negative); assay: FACS binding to US28 negative control CHO cells; set-up: species or system Chinese hamster
Description: Flowcytometry was used to analyze cell surface binding by the US28 antibodies. Upon cell harvest, adherent non-infected and US28 overexpressing or HCMV infected cells were washed three times with cell staining buffer (phosphate-buffered saline (PBS (Amresco, Cleveland, 44139, USA) added 0.5% BSA and 0.05% Sodium Azide (NaN3)). The cells were trypisinized and then resuspended in DMEM with 10% FBS to inhibit the action of trypsin. The cells were then pelleted at 400×g for 10 minutes and washed three times in cell staining buffer. Cell viability and cell concentration were measured by tryphan blue viability assay and a cell counter (Countess, Invitrogen, Carlsbad, CA 92008, USA). The cell suspension was adjusted to 1×10^6 cells/mL with ice-cold cell staining buffer. The cells were blocked in 1 ml 10% FBS or 1% BSA in PBS per 1×10^6 cells, vortexed briefly, and incubated for 10-30 minutes to eliminate non-specific staining. The cells were then stained with the respective antibodies and appropriate negative controls.
In both cases (ECD1 and ECD3), the antibodies were added to the cells, vortexed and incubated on ice for 15 to 30 minutes up to overnight and washed twice with cell staining buffer to remove any unbound antibodies. In addition, the CMV Immediate Early Antigen (IE) Alexa488 Ab, MAB810X, 1:50 was included to verify HCMV infected cells in one of the experiments. Because it binds to an intracellular, HCMV encoded protein, it was added after permeabilizing the cells in 70% ethanol for 30 min on ice.
1:500-1:5000 in cell staining buffer of the appropriate fluorescent-conjugated appropriate secondary antibodies were added and incubated on ice for 15-20 min in the dark. The cells were washed three times to remove any unbound antibodies. The cells were then fixed with 0.5% paraformaldehyde (PFA) for 30 min on ice and resuspended in 200-500 μL cell staining buffer for final flow cytometric analysis using an Accuri C6 flow cytometry system (BD Biosciences, San Jose, CA 95131, USA). Data analyses were performed using FlowJo software v8.8 (Treestar Inc. Ashland, OR 97520, USA).
Background levels were determined using the respective secondary antibodies (anti-mFc-FITC for the subclones, or anti-myc-PE for the VUN100 molecules) with CHO cells and CHO-US28 cells. Given that US28 is expressed on the cell surface, the cells were non-permeabilised for these experiments.

B1: US28-13-5G6-1D3: monoclonal antibody against ECD3 of HCMV US28; VH SEQ ID NO: 12, VL SEQ ID NO: 18; rAb is the recombinant product (antibody, V domains shown)
VH: EVKLVESGGGLVQPGGSLRLACATSGFTFTDYYMSWVRQPPGKALEWLGFIRSKANGYTTEYSASVKGRFTISRDNSQSILYLQMNTLRSEDSATYYCARDERRTAWLAYWGQGTLVTVSA
VL: DVLMTQTPLSLPVSLGDQASISCRSSQSIVHSNGNTYLDWYLQKPGQSPKLLIYKVSNRFSGVPDRFSGSGSGTDFTLKISRVEAEDLGVYYCFQGSHVPTWTFGGGTKLEIK
modifications: Mature form of VH sequence of 1D3, without the leader sequence; Mature form of VL sequence of 1D3, without the leader sequence
notes: monoclonal antibody against ECD3 of HCMV US28; rAb is the recombinant product
IHC staining grade ([1]; all astrocytoma grade 1 (n=4)): 0
number of tumors stained negative (0) ([1]; grade 2-3 astrocytomas): 6
number of tumors with moderately positive cytoplasmic staining (2+) ([1]; grade 2-3 astrocytomas): 2
number of tumors with positive cytoplasmic staining (1+) ([1]; grade 2-3 astrocytomas): 37
IHC staining of heart muscle tissue [2]: negative

B2: 13-5G6-1D3 rAb: recombinant antibody product of US28-13-5G6-1D3 produced in HEK293-F cells (antibody)
heavy: EVKLVESGGGLVQPGGSLRLACATSGFTFTDYYMSWVRQPPGKALEWLGFIRSKANGYTTEYSASVKGRFTISRDNSQSILYLQMNTLRSEDSATYYCARDERRTAWLAYWGQGTLVTVSAAKTTPPSVYPLAPGSAAQTNSMVTLGCLVKGYFPEPVTVTWNSGSLSSGVHTFPAVLQSDLYTLSSSVTVPSSTWPSETVTCNVAHPASSTKVDKKIVPRDCGCKPCICTVPEVSSVFIFPPKPKDVLTITLTPKVTCVVVDISKDDPEVQFSWFVDDVEVHTAQTQPREEQFNSTFRSVSELPIMHQDWLNGKEFKCRVNSAAFPAPIEKTISKTKGRPKAPQVYTIPPPKEQMAKDKVSLTCMITDFFPEDITVEWQWNGQPAENYKNTQPIMDTDGSYFIYSKLNVQKSNWEAGNTFTCSVLHEGLHNHHTEKSLSHSPGK
light: DVLMTQTPLSLPVSLGDQASISCRSSQSIVHSNGNTYLDWYLQKPGQSPKLLIYKVSNRFSGVPDRFSGSGSGTDFTLKISRVEAEDLGVYYCFQGSHVPTWTFGGGTKLEIKRADAAPTVSIFPPSSEQLTSGGASVVCFLNNFYPKDINVKWKIDGSERQNGVLNSWTDQDSKDSTYSMSSTLTLTKDEYERHNSYTCEATHKTSTSPIVKSFNRNEC
control CHO cells bound ([3]; 1:10 dilution (w/v), blank and secondary Ab controls removed, FIG. 7): 0.77%

B3: 7B1F3: mouse IgG1 kappa antibody against US28 ECD1 Peptide-N; VH SEQ ID NO: 211, VL SEQ ID NO: 213 (antibody, V domains shown)
VH: EVQLQQSGAELAKPGASVKMSCKASGYTFTNYWMHWVKQRPGQGLEWIGYVNPRTGYTEYNQKFKDKATLTADKSSRTAYMQLSSLTSEDSAVYSCARILNGTGFAYWGQGTLVTVSA
VL: DIVLTQSPSSLTVSVGEKFTMSCKSSQSLLYSSNQKNYLAWYQQKPGQSPKLLIYWASTRESGVPDRFTGSGSGTDFTLAISSVKPEDLAIYYCQQYYSFPLTFGAGTKLEIK
modifications: Mature form of VH sequence of 7B1F3, without the leader sequence; Mature form of VL sequence of 7B1F3, without the leader sequence
Percentage of binding to CHO cells ([3]; Table 7B, (1:5), secondary antibody background removed): 0.67%

B4: 13-5G6-1D3: mouse monoclonal IgG1 kappa antibody against US28 ECD3; VH SEQ ID NO: 12, VL SEQ ID NO: 18 (antibody, V domains shown)
VH: B1 VH
VL: B1 VL
modifications: Mature form of VH sequence of 1D3, without the leader sequence; Mature form of VL sequence of 1D3, without the leader sequence
IHC staining of brain tissue NAT [1]: negative
IHC staining of malignant pheochromocytoma ([2]; positive control on the same TMA plate): positive staining
background binding, % of CHO negative control population ([3]; FIG. 21A): 0.88%
